Reference: patent US20250215080A1 (published 2025)
Where a chain is given by its changes, count along the chain named.

T1: hTREM2 ECD (19-174) (human, UniProt Q9NZC2 19-174)
T1 construct: Antigen in solution of the SET experiments; also called human TREM2 (SET antigen)
T1 sequence: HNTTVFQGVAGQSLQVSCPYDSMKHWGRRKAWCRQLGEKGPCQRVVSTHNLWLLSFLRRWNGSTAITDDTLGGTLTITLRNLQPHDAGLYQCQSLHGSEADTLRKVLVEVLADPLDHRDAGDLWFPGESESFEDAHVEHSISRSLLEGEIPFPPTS

T2: cynomolgus TREM2 (construct not stated) (cynomolgus, UniProt A0A2K5UY34 49-204)
T2 construct: also called cyno TREM2
T2 sequence: T1 sequence with A10E, W60R, L89F, F125V

T3: human TREM2 (hTREM2), expressed on cells (human, UniProt Q9NZC2 19-230)
T3 construct: Signal peptide 1-18 as stated left out; On CHO cells co-expressed with hDAP12; on hM2A macrophages endogenous; also called WT-TREM2; CHO-hDAP12-hTREM2
T3 sequence: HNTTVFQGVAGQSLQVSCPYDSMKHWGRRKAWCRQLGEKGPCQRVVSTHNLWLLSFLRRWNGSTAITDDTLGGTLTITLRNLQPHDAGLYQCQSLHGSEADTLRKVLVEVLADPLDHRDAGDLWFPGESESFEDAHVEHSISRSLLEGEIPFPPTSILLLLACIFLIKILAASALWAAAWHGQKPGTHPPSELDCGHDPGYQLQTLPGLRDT

T4: cynomolgus TREM2 expressed on CHO cells (cynomolgus, UniProt A0A2K5UY34 49-260)
T4 construct: whole, on cells; also called CHO-cyTREM2; CHO-cynoTREM2
T4 sequence: T3 sequence with A10E, W60R, L89F, F125V, I157V, L193P, Y201H

T5: hTREM2 ECD (19-174)-hFc (human, UniProt Q9NZC2 19-174, biotinylated in the -bio form)
T5 construct: Plain and biotinylated forms are kept as one molecule; also called hTREM2 ECD (19-174)-hFc-bio; hTREM2 Fc
T5 sequence: T1 sequence

T6: cyTREM2 ECD (19-174)-APP-Avi (cynomolgus, UniProt A0A2K5UY34 49-204)
T6 construct: range 19-174
T6 sequence: T1 sequence with A10E, W60R, L89F, F125V

T7: hTREM2 IgSF-hTREM1 stalk-hFc (human, UniProt Q9NP99 135-205, limits assumed, biotinylated in the -bio form)
T7 construct: domain: stalk region; also called hTREM2 IgSF-T1 stalk-hFc-bio; hTREM2 IgSF-hTREM1 stalk-hFc-bio
T7 sequence: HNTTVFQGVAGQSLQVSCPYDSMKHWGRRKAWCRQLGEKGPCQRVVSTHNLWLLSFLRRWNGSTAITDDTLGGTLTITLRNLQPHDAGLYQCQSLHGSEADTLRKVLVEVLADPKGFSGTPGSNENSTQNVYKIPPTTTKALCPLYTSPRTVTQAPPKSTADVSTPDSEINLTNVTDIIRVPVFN

T8: cyTREM2 ECD (19-174)-hFc (cynomolgus, UniProt A0A2K5UY34 49-204)
T8 construct: range 19-174; also called cyTREM2-ECD (19-174)-hFc-bio
T8 sequence: T1 sequence with A10E, W60R, L89F, F125V

T9: hTREM2 ECD (19-174)-His (human, UniProt Q9NZC2 19-174)
T9 sequence: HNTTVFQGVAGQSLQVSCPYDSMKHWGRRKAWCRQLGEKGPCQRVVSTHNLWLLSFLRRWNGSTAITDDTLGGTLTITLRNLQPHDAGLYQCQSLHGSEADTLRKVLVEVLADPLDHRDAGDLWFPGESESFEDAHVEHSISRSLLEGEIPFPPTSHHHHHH

T10: mTREM2 ECD (19-168)-His (mouse, UniProt Q99NH8 19-168)
T10 construct: range 19-168
T10 sequence (looked up): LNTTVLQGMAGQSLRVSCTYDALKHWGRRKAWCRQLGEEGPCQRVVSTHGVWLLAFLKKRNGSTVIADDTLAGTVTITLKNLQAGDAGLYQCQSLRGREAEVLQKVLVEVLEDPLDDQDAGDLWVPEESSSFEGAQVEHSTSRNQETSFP

B1: MOR044698 (antibody, V domains shown)
VH: QVQLVQSGAEVKKPGASVKVSCKASGYTFTGYHMSWVRQAPGQGLEWMGVINPVSGNTVYAQKFQGRVTMTRDTSISTAYMELSRLRSEDTAVYYCARIPSYTYAFDYWGQGTLVTVSS
VL: DIQMTQSPSSLSASVGDRVTITCRASQDISNYLAWYQQKPGKAPKLLIYRASSLQSGVPSRFSGSGSGTDFTLTISSLQPEDFATYYCFQYRHMPSQTFGQGTKVEIK
notes: light chain 26); Human IgG vector of the campaign: IgG1f LALA; Matured from MOR042596; VH1B k1; also called MOR44698
B2: MOR042596 (full IgG) (antibody, V domains shown)
VH: B1 VH
VL: DIQMTQSPSSLSASVGDRVTITCRASQDISNYLAWYQQKPGKAPKLLIYRASSLQSGVPSRFSGSGSGTDFTLTISSLQPEDFATYYCQQHGHSPTTFGQGTKVEIKR
notes: Parental antibody of MOR044698; VH1B k1
B3: MOR044746 (antibody, V domains shown)
VH: QVQLQQSGPGLVKPSQTLSLTCAISGDSVSSSSAAWNWIRQSPSRGLEWLGHIGYRSKWYNEYAVSVKSRITINPDTSKNQFSLQLNSVTPEDTAVYYCARGMYGSVPYKEGYYFDIWGQGTLVTVSS
VL: DIQMTQSPSSLSASVGDRVTITCRASQGISSDLNWYQQKPGKAPKLLIYAASNLQSGVPSRFSGSGSGTDFTLTISSLQPEDFATYYCQQYTDESMTFGQGTKVEIK
notes: light chain 63); Human IgG vector of the campaign: IgG1f LALA; Matured from MOR042493; VH6 k1; also called MOR44746
B4: MOR041877 (full IgG) (antibody, V domains shown)
VH: QVQLKESGPALVKPTQTLTLTCTFSGFSLSTSGVGVSWIRQPPGKALEWLALIFSDHDKIYSTSLKTRLTISKDTSKNQVVLTMTNMDPVDTATYYCARTLIDRSVYFDYWGQGTLVTVSS
VL: DIVLTQPPSVSGAPGQRVTISCSGSSSNIGHHYVSWYQQLPGTAPKLLIYDNTNRPSGVPDRFSGSKSGTSASLAITGLQAEDEADYYCATWDGLMNSIVFGGGTKLTVLG

Assays:
[1] = target: T1, hTREM2 ECD (19-174); experiment: SET
[2] = target: T2, cynomolgus TREM2 (construct not stated); experiment: SET
[3] = target: T1, hTREM2 ECD (19-174); experiment: SET screening
Protocol: Serial dilutions of unlabeled antigen were prepared, starting with a concentration at least 10 times higher than the expected KD. Wells without antigen were used to determine Bmax values; wells containing only assay buffer were used to determine background.
The data was evaluated with XLfit (IDBS) software applying customized fitting models. […] A constant amount of diluted BEL extract (containing borate buffer, EDTA and lysozyme) was equilibrated over night with different concentrations of antigen.

[4] = target: T3, human TREM2 (hTREM2), expressed on cells; experiment: FACS, hM2A, donor 1
Protocol: (§1) To determine cellular EC₅₀ of antibodies on hM2A, CHO-hTREM2 or CHO-cynoTREM2, cells were treated o/n with 5 μM DPC333 (ADAM10 and 17 inhibitor; Qian, M et al. Drug Metab Dispos, 2007. 35:p. 1916-1925). Macrophages were detached with accutase (Biolegend, 423201) followed by resuspension in FACS buffer (PBS, 2% FBS, 0.5 mM EDTA, pH 8.0) supplemented with 50 μg/ml Fc block (BD, 564220) and incubated for at least 20 min on ice. Next cells were stained for 1 h at 4° C. in the same buffer with a broad concentration range of the different anti-TREM2 antibodies followed by a washing step with PBS (250 g, 4° C., 3 min). […] After a second washing step with PBS (250 g, 4° C., 3 min), cells were fixed with fixation buffer (Biolegend, 420801) for 15 min at RT, washed again and fluorescence was assessed using a BD FACS Canto II (BD, V96300323) or a FacsCalibur flow cytometer. Median fluorescence intensities corresponding to the degree of TREM2 antibody bound to cells were evaluated using FlowJo software (Millipore INC).
(§2) Individual values for each donor are given.

[5] = target: T3, human TREM2 (hTREM2), expressed on cells; experiment: FACS, hM2A, donor 2
Protocol: as §1, §2

[6] = target: T3, human TREM2 (hTREM2), expressed on cells; experiment: FACS, hM2A, donor 3
Protocol: as §1, §2

[7] = target: T3, human TREM2 (hTREM2), expressed on cells; experiment: FACS, hM2A, donor 4
Protocol: as §1, §2

[8] = target: proteins of the protein panel profiling (3P), 25 in total; experiment: protein panel profiling (3P), ECL
[9] = target: T3, human TREM2 (hTREM2), expressed on cells; experiment: cell-based or functional assay
[10] = target: T3, human TREM2 (hTREM2), expressed on cells; experiment: cell-based or functional assay; remark: listed apart in the source
[11] = target: T3, human TREM2 (hTREM2), expressed on cells; experiment: FACS, hM2A macrophages
Protocol: as §1, §2

[12] = target: T3, human TREM2 (hTREM2), expressed on cells; experiment: FACS, CHO-hTREM2 cells
Protocol: as §1

[13] = target: T3, human TREM2 (hTREM2), expressed on cells; experiment: cell-based or functional assay; remark: listed apart in the source
[14] = target: T4, cynomolgus TREM2 expressed on CHO cells; experiment: FACS, CHO-cyTREM2 cells
Protocol: as §1

[15] = target: T5, hTREM2 ECD (19-174)-hFc; experiment: SPR, label free kinetics
Protocol: (§3) For a precise assessment of the binding affinities of the antibodies affinity-determination by measuring kinetic rate constants was performed by SPR. In addition a comparison to cynomolgus TREM2 was performed (Table 21).

[16] = target: T6, cyTREM2 ECD (19-174)-APP-Avi; experiment: SPR, label free kinetics
Protocol: as §3

[17] = target: T7, hTREM2 IgSF-hTREM1 stalk-hFc; experiment: S/BG on recombinant protein
[18] = target: T5, hTREM2 ECD (19-174)-hFc; experiment: S/BG on recombinant protein
[19] = target: T8, cyTREM2 ECD (19-174)-hFc; experiment: S/BG on recombinant protein
[20] = target: T3, human TREM2 (hTREM2), expressed on cells; experiment: FACS, hM2A, median of 4 donors
Protocol: as §1, §2

[21] = target: T9, hTREM2 ECD (19-174)-His; experiment: SPR Biacore
[22] = target: T6, cyTREM2 ECD (19-174)-APP-Avi; experiment: SPR Biacore
[23] = target: T10, mTREM2 ECD (19-168)-His; experiment: SPR Biacore
[24] = target: T5, hTREM2 ECD (19-174)-hFc; experiment: direct ELISA
Protocol: Antigens were immobilized on microtiter plates (see Table 8). Plates were blocked and incubated with antibodies such as Fab containing crude E. coli lysates or purified Fab or IgG samples. Bound antibodies were detected using respective alkaline-phosphatase (AP) coupled secondary antibodies in combination with ‘AttoPhos’ fluorescence substrate. Multiple washing steps were performed between individual assay steps.

[25] = target: T3, human TREM2 (hTREM2), expressed on cells; experiment: FACS, hM2A macrophages; remark: listed apart in the source
[26] = target: T3, human TREM2 (hTREM2), expressed on cells; experiment: FACS, CHO-DAP12-hTREM2 cells
[27] = target: T3, human TREM2 (hTREM2), expressed on cells; experiment: FACS, CHO-hDAP12-hTREM2 cells
[28] = target: T3, human TREM2 (hTREM2), expressed on cells; experiment: cell-based or functional assay; remark: listed apart in the source

Binder | Kd [1] [nM] | Kd [2] [nM] | Kd [3] [nM] | EC50 [4] [nM] | EC50 [5] [nM] | EC50 [6] [nM] | EC50 [7] [nM] | Cumulative binding ratio [8] | Internalization compared to parental after 6 h [9] | Internalization; fold over background after 6 h [9] [fold] | TREM2 activation (fold in RGA) [10] [fold] | EC50 [11] [nM] | EC50 [12] [nM] | Fold TREM2 cell surface increase compared to isotype (hM2A, 100 nM o/n) [13] [fold] | EC50 [14] [nM] | Kd [15] [nM] | Kd [16] [nM] | S/BG [17] | S/BG [18] | S/BG [19] | also measured
B1 | 0.046 | 0.039 | < 0.6 | 0.86 | 0.55 | 0.55 | 0.56 | < 150 | 1.5 fold of parental | 57.1 | 1 | < 2 | 0.2 | 7.9 | 0.46 | 0.046 | 0.039 | > 20 | > 5 | > 5 | EC50 [20]: 0.56 nM
B2 | – | – | – | – | – | – | – | – | – | – | – | – | – | – | – | – | – | – | – | – | Kd [21]: 12 nM; Kd [22]: 6.6 nM; Kd [23]: 0.9 nM; EC50 [24]: 2.4 nM; EC50 [25]: 37 nM; EC50 [26]: 3.4 nM; EC50 [27]: 3.4 nM
B3 | 0.003 | 0.004 | < 0.6 | 0.73 | 0.54 | 0.54 | 0.64 | < 150 | 0.7 fold of parental | 33.3 | 1.3 | < 2 | 0.16 | 5.1 | 0.65 | 0.003 | 0.004 | > 20 | > 5 | > 5 | EC50 [20]: 0.59 nM
B4 | – | – | – | – | – | – | – | – | – | – | – | – | – | – | – | – | – | – | – | – | EC50 [25]: 0.7 nM; RGA in THP-B5 cells (fold increase over BG) [28]: 2.1 fold; EC50 [27]: 0.5 nM
